Tests used:
[1] = target: T1, human Tigit extracellular domain recombinant protein hTigit-his (Acrobiosystem, Cat.TIT-H2H3) (human, UniProt Q495A1 22-141); experiment: BLI epitope binning (ForteBIO QKe), hTigit-his on anti-Penta-HIS sensor; competitor R0223
T1 construct: extracellular domain; Bought; not shown: his tag
T1 sequence (looked up): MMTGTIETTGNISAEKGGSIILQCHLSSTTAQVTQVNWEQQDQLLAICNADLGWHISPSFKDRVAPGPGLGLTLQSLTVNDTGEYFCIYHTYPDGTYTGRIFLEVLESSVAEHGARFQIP
Procedure: (§1) Epitope competition analysis was performed on an anti-human TIGIT antibody with an MD ForteBIO QKe platform. An experimental method included: a human Tigit extracellular domain recombinant protein hTigit-his (Acrobiosystem, Cat.TIT-H2H3, lot-1336-76GF1-F9) carrying a his tag was diluted with an equilibration buffer (1×PBS+0.02% Tween 20), until the final concentration was 1.5 μg/ml. The anti-human Tigit antibody was diluted with the equilibration buffer (1×PBS+0.02% Tween 20), the final concentration being 5 μg/ml. After an anti-Penta-HIS biosensor (ForteBIO, Cat. 18-5122) was fully hydrated, first the hTigit-his recombinant protein was solidified for 180 seconds, then equilibrated for 30 seconds, and bound to the first anti-human Tigit antibody for 180 seconds, then equilibrated for 30 seconds, and then bound to the second anti-human Tigit antibody, binding time being 300 seconds. The whole reaction was performed at 25° C. and 1000 rpm; and finally, Octet analysis software was used to perform epitope binning analysis.

[2] = target: T1, human Tigit extracellular domain …; experiment: BLI epitope binning (ForteBIO QKe), hTigit-his on anti-Penta-HIS sensor; competitor R0300
Procedure: as §1

B1: Tigit-18 (antibody, V domains shown)
VH: QVQLQQPGAELVRPGASVKLSCKASGYSFTSYWMNWVKQRPGQGHEWIGMIHLSNSETRLNQNFLDKATLTVDKSSSTVYLQLSSPTSEDSAVYYCARERDYYGSSYFDYWGQGTTLTVSS
VL: DIVMTQSPASLVVSLGQRATISCRTSQSVSTSSYSYMHWYQQKPGQPPKLLIKNASNLESGVPARFSASGSGTDFTLNIHPVEEEDAATYYCQHSWEIPRTFGGGTKLEIK
In the case of B1, the “epitope binning signal (name and unit not given)” value [1] is reported as 0.0383 and the “epitope binning signal (name and unit not given)” value [2] is reported as 0.544.

Source: patent publication US20240002500A1 (GUANGDONG FAPON BIOPHARMA, published 2024)
